“And” between values parts separate entries of the source, which are not always exact repeats. Identical values can stand only once.
Target: T1, mouse CEACAM5 (mouse) (UniProt Q3UKK2)
T1 sequence (looked up): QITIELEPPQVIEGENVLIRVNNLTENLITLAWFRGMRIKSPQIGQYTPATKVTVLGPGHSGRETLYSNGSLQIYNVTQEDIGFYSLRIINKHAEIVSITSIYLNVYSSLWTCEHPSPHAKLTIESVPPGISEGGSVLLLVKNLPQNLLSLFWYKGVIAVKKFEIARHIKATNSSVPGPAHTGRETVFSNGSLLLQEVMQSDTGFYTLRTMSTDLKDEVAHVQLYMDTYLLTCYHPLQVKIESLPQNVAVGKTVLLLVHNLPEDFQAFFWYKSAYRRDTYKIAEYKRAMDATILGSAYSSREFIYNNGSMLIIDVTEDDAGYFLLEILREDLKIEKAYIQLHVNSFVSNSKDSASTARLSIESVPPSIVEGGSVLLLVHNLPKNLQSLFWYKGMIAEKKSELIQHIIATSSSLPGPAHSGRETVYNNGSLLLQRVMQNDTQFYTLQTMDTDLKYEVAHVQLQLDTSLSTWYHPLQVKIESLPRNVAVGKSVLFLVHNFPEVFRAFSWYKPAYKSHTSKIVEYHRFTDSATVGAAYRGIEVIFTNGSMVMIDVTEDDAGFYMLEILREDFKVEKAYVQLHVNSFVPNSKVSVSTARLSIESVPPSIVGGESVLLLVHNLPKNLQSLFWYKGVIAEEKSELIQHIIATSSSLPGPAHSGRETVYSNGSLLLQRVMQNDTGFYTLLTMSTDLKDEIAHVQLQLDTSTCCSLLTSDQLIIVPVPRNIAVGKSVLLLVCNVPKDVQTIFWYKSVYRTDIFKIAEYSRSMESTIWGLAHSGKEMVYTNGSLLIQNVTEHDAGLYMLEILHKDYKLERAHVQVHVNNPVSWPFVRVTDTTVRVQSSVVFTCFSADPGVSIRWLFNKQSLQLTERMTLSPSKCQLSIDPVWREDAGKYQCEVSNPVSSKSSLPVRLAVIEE
Test: ELISA on coated protein, OD450

B1: Antibody 7 (antibody, V domains shown)
VH: QIQLVQSGPELKKPGETVKISCKASGYTFTDYGMNWVKQAPGKGLKWMGWINTYTGEPTYPDDFKGRFAFSLETSATTAYLQINNLKNEDTATYFCSRGDLLVRLDNWGQGTTLTVSS
VL: DIQMTQSPSSLSASLGGKVTITCKASQDINKYISWYQHKPGKGPRLLIHYTSTLQSGIPSRFSGSGSGRDYSFSISNLEPEDIATYYCLQYDYLRTFGGGTKLEIK
OD: 0.31 OD and 0.24 OD
